Data from the supplement of paper PMC9170038.

Experiments:
MS2 coat protein [1] = test: apparent KD of MS2 coat protein, switch ON state; designed switch direction (-1 OFF switch, 1 ON switch): -1; higher = weaker reporter binding; conditions: FMN input: 0 or 200 uM; Eterna round: R93 (includes R88 designs)
Method in brief: (§1)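 Apparent KD is reported per design as the median of normalised binding-curve fits across its clusters. The RNA switches were made by on-chip transcription from Illumina sequencing clusters. SNAP-549-labelled MS2 coat protein was then added in twofold steps (0.7 or 1.5 nM to 3 µM; 0.8–1.5 h to 10–20 min per step) in 100 mM Tris-HCl pH 7.5, 80 mM KCl, 4 mM MgCl2, without or with constant ligand.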

MS2 coat protein [2] = test: apparent KD of MS2 coat protein, switch OFF state (with FMN for OFF switches, without FMN for ON switches); designed switch direction (-1 OFF switch, 1 ON switch): -1; higher = weaker reporter binding; conditions: FMN input: 0 or 200 uM; Eterna round: R93 (includes R88 designs)
Method in brief: as §1

| Sequence | apparent KD of MS2 coat protein (MS2 coat protein [1]) | apparent KD of MS2 coat protein (MS2 coat protein [2]) |
| --- | --- | --- |
| CUCUAGUUAGGAUAUGGAAGAAAAGAAAAGAAAGAAAAGAACCAGAAGGAACAUGAGGAUCACCCAUGUAAGAA [EteRNA is fun!] | 45.5 nM | 34 nM |
| AAGAAAGCAGGAUAUACAUGAGGAUCACCCAUGUAAAAGAAAGAAAAGGGAAAGAAAAGUAGAAGGGCUAAGAA [User/Heqamaatre-setpenamun Ramesses IV] | 27.2 nM | 74.1 nM |
| AAUGCGGCAGGAUAUACAUGAGGAUCACCCAUGUACAUCAGAUAUAUGGUCGAACCAUGUAGAAGGGCCGCAAA [Ex 3May 57] | 87.3 nM | 202 nM |
| GAAUGCAGAGGAUAUACGGGAUAGCAUCGAAAGAUGCUAAAACAUGAGGAUCACCCAUGUAGAAGGCUGCAGAA [JL Mod 02] | 58 nM | 144 nM |
| AAAACGGUAGGAUAUACGAAAAAAAAGGGAGAACAAAAGGGACAUGAGGAUCACCCAUGUAGAAGGACCAAAAA [Diamond 89] | 40.6 nM | 84.7 nM |
| AAAUUAGCAGGAUAUACUAGGGUCCACCGAACUCUGAAAAGACAUGAGGAUCACCCAUGUAGAAGGGCUUCGAA [Atileso] | 30 nM | 97.6 nM |
| GGUUGGCGAGGAUAUACAUGAGGAUCACCCAUGUGAGAGAAUAAAGUGAGAAAGAAAAGUAGAAGGCGCUGACG [salish99-ex3-44] | 63.7 nM | 116 nM |
| AAAAAGUUAGGAUAUACAUGAGGAUCACCCAUGUACAUAUAUGGAGAAUAUAGUAGUAGUAGAAGGGACAAAAA [EX2 Malc#14] | 21 nM | 26.9 nM |
| AGCUAGUCAGGAUAUACGAACAUGACAAAAGACGUGAAGGGACAUGAGGAUCACCCAUGUAGAAGGGACUAGCA [74%, Web mod - With 1 less U's] | 38.7 nM | 89.7 nM |
| GGUUGUCGAGGAUAUACAUGAGGAUCACCCAUGUGAGAGAAAAAAGUGAGAAAGAAAAGUAGAAGGCGAUGACG [salish99-ex3-58] | 38.2 nM | 180 nM |
| AGAGGACAUGAGGAUCACCCAUGUGAGGAUAUGCAAAACUAAGGACAAGAUCGGUAUAGCAGAAGGCACGUAGU [JR_EXc001_Sub808] | 46.7 nM | 78.2 nM |
| AACAGCACAGGAUAUACAUGAGGAUCACCCAUGUGAGAAUUAAGUGGCGUACCACAAAGUAGAAGGGUGCUGGA [Mat - Exclusion 3 - JL mod - D39] | 35.9 nM | 203 nM |
| AGCAAGUGAGGAUAUGCGAAGUCAGGACACACACUGACGAAGCAGAAGGCACAUGAGGAUCACCCAUGUAAGCA [JR_Exclusion-4 65% 1] | 33.1 nM | 27.1 nM |
| AGUUGGCGAGGAUAUACAUGAGGAUCACCCAUGUGAAAUCGCGAAGAAAUAGGGAAAAGUAGAAGGCGCUGACA [Ruby 61] | 11.6 nM | 19.9 nM |
| AAAUAGCAAGGAUAUACAUGAGGAUCACCCAUGUGAAAAAGGUAUGGAAUAGAAUAGAGUAGAAGGUGCAAAUA [Mod of Ex 3 Tesla 8 - Jieux - Exclusion 3] | 24.9 nM | 35.7 nM |
| AAGAAGAUAGGAUAUACAAAAUAAAAGAAAAGAAAGAAAGAACAUGAGGAUCACCCAUGUAGAAGGGUCAAGAA [Kheperkare Senusret I] | 54.6 nM | 56.5 nM |
| AACAUGUUAGGAUAUCUAAGAAAAGAAAAGAAAGAAAAGAAAGAGAAGGAACAUGAGGAUCACCCAUGUAAGAA [EteRNA is fun!] | 30.1 nM | 22.1 nM |
| AAAAAGAAAGGAUAUACGAACAUGUCAAAAGACGUGAAGGGACAUGAGGAUCACCCAUGUAGAAGGUUCAAAAA [JL Half Open 22] | 35.8 nM | 17.1 nM |
| AACAGUACAGGAUAUACAUGAGGAUCACCCAUGUGGGAAUUAAGUGGCGUACCACAAAGUAGAAGGGUACUGGA [Moding Maslow revisited (73)] | 72.5 nM | 172 nM |
| AAAAAACAUGAGGAUCACCCAUGUGAGGAUAUGCAAAAAAAAAAAAAAAAAUAAAAAAGCAGAAGGCACAAAAA [Sh'dynasty] | 30.6 nM | 33.2 nM |
